Experiment [1] addresses T1, human GLP-1 receptor (human, UniProt P43220 24-463). Nature of the experiment: cell-based or functional assay.
For a further experiment, the target named is T2, mouse GLP-1 receptor (mouse, UniProt O35659 22-463).
T2 sequence (looked up): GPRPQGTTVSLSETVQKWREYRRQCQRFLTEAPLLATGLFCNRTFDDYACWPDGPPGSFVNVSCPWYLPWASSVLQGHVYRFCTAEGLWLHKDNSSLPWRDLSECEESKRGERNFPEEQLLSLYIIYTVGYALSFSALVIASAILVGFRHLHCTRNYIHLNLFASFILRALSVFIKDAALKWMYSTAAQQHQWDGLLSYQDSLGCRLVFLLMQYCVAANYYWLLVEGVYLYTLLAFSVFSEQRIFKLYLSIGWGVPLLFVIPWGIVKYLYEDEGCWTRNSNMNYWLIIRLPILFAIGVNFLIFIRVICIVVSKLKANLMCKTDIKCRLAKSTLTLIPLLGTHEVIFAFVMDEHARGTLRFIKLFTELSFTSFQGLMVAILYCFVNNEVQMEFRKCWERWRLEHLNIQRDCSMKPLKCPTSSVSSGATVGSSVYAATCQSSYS
Nature of the experiment: cell-based or functional assay.

Experiment [2] has as its target T1, human GLP-1 receptor. Nature of the experiment: 125I-GLP-1 displacement, membranes of CHOK1 cells expressing human GLP-1 receptor. Here is the method:
Membrane Preparation. […] Cells were sedimented at 1500 rpm for 10 minutes. The resulting pellets were homogenized in 15 mls of ice cold sucrose buffer (25 mM Tris-HCl, 0.32 M Sucrose, 0.25 g/L, sodium azide, pH 7.4) with a motorized, glass fitted, Teflon homogenizer. The homogenate was centrifuged at 48,000×g at 4° C. for 10 minutes, resuspended in 25 ml assay buffer (50 mM Tris-HCl, 5 mM MgCl₂, 10 mg/ml protease-free BSA, 0.1 mg/ml STI, and 0.1 mg/ml Pefabloc, pH 7.4) with a Tissue-Tearor (Biospec Products), then centrifuged again at 48,000×g for 10 minutes. The pellets were homogenized for a third time in 15 ml assay buffer using the Tissue-Tearor and again centrifuged at 48,000×g for 10 minutes. The resulting pellet was resuspended in assay buffer at a wet weight concentration of 4 mg/ml.
Ligand Binding Assay. Binding assays were performed in 96-well U-bottom plates. […] The reaction was terminated by rapid filtration through Unfilter-96 GF/C glass fiber filter plates (FilterMate 196 Packard Harvester, PerkinElmer, Shelton, Conn.) pre-soaked in 0.5% polyethylenimine, followed by three washes with 300 μl of cold 50 mM Tris-HCl, pH 7.4. Bound radioactivity was determined using a TopCount microplate scintillation and luminescence counter (Packard Instrument Company, PerkinElmer, Shelton, Conn.). […]

These results are taken from US20100048468A1 (Amgen, published 2010).

In general, IC50 refers to the midpoint of a concentration-inhibition curve. A higher IC50 goes with weaker potency.

Positions of bridges follow the written chain, without caps; N, C: chain ends. No end group written: not given here.

B1: GLP1(7-37) cyclo[Lys16-Glu20] (SEQ ID NO: 159) (peptide)
peptide: HGEGTFTSDVSSYLEKQAAEEFIAWLVKGRG-NH2
modifications: lactam 16-20; N-terminus assumed
SMILES: CC[C@H](C)[C@H](NC(=O)[C@H](Cc1ccccc1)NC(=O)[C@H](CCC(=O)O)NC(=O)[C@@H]1CCC(=O)NCCCC[C@H](NC(=O)[C@H](CCC(=O)O)NC(=O)[C@H](CC(C)C)NC(=O)[C@H](Cc2ccc(O)cc2)NC(=O)[C@H](CO)NC(=O)[C@H](CO)NC(=O)[C@@H](NC(=O)[C@H](CC(=O)O)NC(=O)[C@H](CO)NC(=O)[C@@H](NC(=O)[C@H](Cc2ccccc2)NC(=O)[C@@H](NC(=O)CNC(=O)[C@H](CCC(=O)O)NC(=O)CNC(=O)[C@@H](N)Cc2c[nH]cn2)[C@@H](C)O)[C@@H](C)O)C(C)C)C(=O)N[C@@H](CCC(N)=O)C(=O)N[C@@H](C)C(=O)N[C@@H](C)C(=O)N1)C(=O)N[C@@H](C)C(=O)N[C@@H](Cc1c[nH]c2ccccc12)C(=O)N[C@@H](CC(C)C)C(=O)N[C@H](C(=O)N[C@@H](CCCCN)C(=O)NCC(=O)N[C@@H](CCCNC(=N)N)C(=O)NCC(N)=O)C(C)C
B1 registered an EC50 human in the experiment with human GLP-1 receptor [1] of 0.016 nM. The EC50 mouse in the experiment with mouse GLP-1 receptor stood at 0.1 nM.

B2: cycloE22-O26 (SEQ ID NO: 69) (peptide)
peptide: HGEGTFTSDVSSYLEEQAAXEFIAWLVKGRG
modifications: ornithine at position 26 (GLP-1 numbering; residue 20 of the entry); side-chain cyclic lactam between Glu22 and Orn26; C-terminal amide
notes: Not pegylated
B2 gave an IC50 with human GLP-1 receptor [2] of 3.7 nM. The molecule also returned an EC50 human with human GLP-1 receptor [1] of 0.051 nM.
